Reference: patent publication US20250179195A1 (LES LABORATOIRES SERVIER, published 2025)
Positions count from the first letter of the chain named. Names may count otherwise.

B1: anti-FLT3 antibody 17497 (antibody, human IgG1, kappa, L234A L235A, V domains shown)
VH: QVQLQESGPGLVKPSGTLSLTCAVSGGSISSTNWWSWVRQPPGKGLEWIGEISHRGSTNYNPSLKSRVTISVDKSKNQFSLKLSSVTAADTAVYYCARDPEMTLYYYYGMDVWGQGTTVTVSS
VL: DIQMTQSPSSLSASVGDRVTITCRASRGIRNDLGWYQQKPGKAPKRLIYAASSLQSGVPSRFSGSGSGTEFTLTISSLQPEDFATYYCLQHNSYPLTFGGGTKVEIKR
notes: Human IgG1-LALA / kappa
B2: anti-FLT3 antibody 17566 (antibody, human IgG1, kappa, L234A L235A, V domains shown)
VH: QVTLKESGPVLVKPTETLTLTCTVSGFSFNNARMGVNWIRQPPGKALEWLAHIFSNDEKSYSTSLKSRLTISKDISKSQVVLTMTNMDPVDTATYYCARIVGYGSGWRLLGDYWGQGTLVTVSS
VL: B1 VL with D1A, R27Q, R30T, R46L, E70D, H91D, N92Y, S93N, L96W, G100Q
notes: Human IgG1-LALA (L234A/L235A) / kappa, germline-corrected variable domains
B3: anti-FLT3 antibody 17526 (antibody, human IgG1, kappa, L234A L235A, V domains shown)
VH: QVTLKESGPVLVKPTETLTLTCTISGFSLGNARMGVSWIRQPPGKALEWLAHIFSNDEKSYSTSLKSRLTISKDTSKSQVVLTMTNMDPVDTATYYCARIVGYVDWLLPFDYWGQGTLVTVSS
VL: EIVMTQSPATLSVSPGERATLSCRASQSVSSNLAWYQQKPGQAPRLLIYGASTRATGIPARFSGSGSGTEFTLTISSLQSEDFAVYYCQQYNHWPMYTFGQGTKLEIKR
notes: Human IgG1-LALA / kappa
B4: anti-FLT3 antibody 17667 (antibody, human IgG1, kappa, L234A L235A, V domains shown)
VH: B3 VH with I24V, G30S, K59R, T63P, D74G
VL: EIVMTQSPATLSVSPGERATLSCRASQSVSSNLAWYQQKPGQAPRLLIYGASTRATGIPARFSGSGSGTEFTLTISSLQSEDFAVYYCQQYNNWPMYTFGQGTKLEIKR
notes: Human IgG1-LALA / kappa
B5: anti-FLT3 antibody 17679 (antibody, human IgG1, kappa, L234A L235A, V domains shown)
VH: QVQLQESGPGLVKPSQTLSLTCTVSGGSISSGGYYWSWIRQHPGKGLEWIGYIYYSGRTNYNPSLKSRVTISEDTSKNQFSLKVSSVTAADTAVYYCARDQDGSGWYFDYWGQGALVTVSS
VL: EIVLTQSPATLSLSPGERATLSCRASQSVSSYLAWYQQKPGQAPRLLIYDASNRATGIPARFSGSGSGTDFTLTIRSLEPEDFAVYYCQQRSNWWTFGQGTKVEIKR
notes: Human IgG1-LALA / kappa
B6: anti-FLT3 antibody 17543 (antibody, human IgG1, kappa, L234A L235A, V domains shown)
VH: QVTLKESGPVLVKPTETLTLTCTVSGFSLINARMGVTWIRQPPGKALEWLAHIFSNDEKSYSTSLKSRLTISKDTSKSQVVLTMTNMDPVDTATYYCARIPGYSRGWDYYYYGMDVWGQGTMVTVSS
VL: B1 VL with R27Q, S53T, L96W, G100Q
notes: Human IgG1-LALA / kappa

These binders were tested against T1, mouse FLT3 expressed on CHO-S cells (mouse, UniProt Q00342 28-1000) (assay: flow cytometry (iQue Screener PLUS) on CHO-S cells transiently expressing mouse FLT3; AF647 anti-human IgG (H+L) secondary; GeoMean RL1-H; 12-point titration).
T1 construct: whole, on cells
T1 sequence (Q00342 28-1000): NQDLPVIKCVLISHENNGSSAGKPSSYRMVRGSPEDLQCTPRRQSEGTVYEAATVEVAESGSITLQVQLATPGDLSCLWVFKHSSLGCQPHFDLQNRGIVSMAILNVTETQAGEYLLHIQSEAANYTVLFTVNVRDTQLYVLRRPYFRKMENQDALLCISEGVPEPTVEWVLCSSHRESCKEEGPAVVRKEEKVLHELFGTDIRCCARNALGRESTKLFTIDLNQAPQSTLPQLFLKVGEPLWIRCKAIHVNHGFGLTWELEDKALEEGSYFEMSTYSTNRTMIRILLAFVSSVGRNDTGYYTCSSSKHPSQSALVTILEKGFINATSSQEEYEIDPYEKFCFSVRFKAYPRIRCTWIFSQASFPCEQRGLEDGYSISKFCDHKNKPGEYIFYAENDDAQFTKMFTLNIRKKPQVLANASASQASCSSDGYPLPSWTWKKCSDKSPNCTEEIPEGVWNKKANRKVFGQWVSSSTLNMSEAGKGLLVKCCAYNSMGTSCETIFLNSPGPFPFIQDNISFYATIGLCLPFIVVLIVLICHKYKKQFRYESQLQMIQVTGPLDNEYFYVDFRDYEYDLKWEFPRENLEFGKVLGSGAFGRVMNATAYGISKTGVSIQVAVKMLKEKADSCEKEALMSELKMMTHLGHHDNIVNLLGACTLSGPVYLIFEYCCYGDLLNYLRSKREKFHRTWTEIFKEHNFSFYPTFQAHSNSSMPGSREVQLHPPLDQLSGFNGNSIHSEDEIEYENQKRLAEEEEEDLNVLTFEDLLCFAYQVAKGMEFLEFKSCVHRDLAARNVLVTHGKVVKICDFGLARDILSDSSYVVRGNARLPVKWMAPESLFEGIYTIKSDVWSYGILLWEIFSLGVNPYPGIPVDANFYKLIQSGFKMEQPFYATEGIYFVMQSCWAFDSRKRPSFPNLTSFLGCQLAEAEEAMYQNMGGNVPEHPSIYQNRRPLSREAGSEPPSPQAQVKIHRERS
Protocol: (§1) The anti-FLT3 antibodies were incubated with the hamster CHO-S cell line transiently expressing human, cynomolgus or mouse FLT3 for 30 minutes at 4° C. The cells were washed twice and subsequently incubated for an additional 20 minutes with AF647-conjugated secondary anti-human IgG (H+L) antibody. After the washing step, antibody binding was detected using the high-throughput flow cytometer iQue Screener PLUS (Sartorius) measuring the GeoMean of AF647 signal in each well. Every concentration was assayed in triplicate and a 12-point titration curve was generated for each antibody.

EC50 (read off the curve)	Binder
~0.01 µg/mL	B1

These binders were tested against T2, recombinant human FLT3 ECD his-tagged fusion receptor (Sino Biological) (human, UniProt P36888 27-543) (assay: bio-layer interferometry (Octet QK384); FLT3-his immobilized on anti-penta-HIS (HIS1K) biosensor; 500 nM antibody, 600 s association).
T2 construct: Bought protein; also called FLT3-his; His-tagged FLT3; not shown: His tag

binding result	Binder
binds	B2
binds	B1
binds	B3
binds	B4
binds	B5

Each binder was assayed against T1, mouse FLT3 expressed on CHO-S cells (assay: flow cytometry (iQue Screener PLUS) on CHO-S cells transiently expressing mouse FLT3; AF647 anti-human IgG (H+L) secondary; GeoMean RL1-H).
Protocol: as §1

binding result	Binder
no binding	B2
no binding	B6
no binding	B3
no binding	B4
no binding	B5

What follows are binders tested against T3, cynomolgus FLT3 expressed on CHO-S cells (cynomolgus, UniProt A0A2K5VQ48 27-993) (assay: flow cytometry (iQue Screener PLUS) on CHO-S cells transiently expressing cynomolgus FLT3; AF647 anti-human IgG (H+L) secondary; GeoMean RL1-H; 12-point titration).
T3 construct: whole, on cells
Protocol: as §1

EC50 (read off the curve)	Binder
~0.03 µg/mL	B2
~0.01 µg/mL	B1
~0.04 µg/mL	B6
~0.02 µg/mL	B3
~0.02 µg/mL	B4
~0.04 µg/mL	B5

The binders below were run against T4, human FLT3 expressed on cells (human, UniProt P36888 27-993) (assay: flow cytometry (iQue Screener PLUS) on CHO-S cells transiently expressing human FLT3; AF647 anti-human IgG (H+L) secondary; GeoMean RL1-H; 12-point titration).
T4 construct: endogenous on EOL-1 cells and primary CD34+ stem cells in the functional rows; also called CD135
Protocol: as §1

binding result	EC50 (read off the curve)	Binder
binds	–	B2
binds	–	B1
–	~0.03 µg/mL	B6
binds	–	B3
binds	–	B4
binds	–	B5
